# Test results published in the DeepSol protein solubility set.
# Assay: soluble on expression in E. coli; label from the status in PepcDB or PDB records
row,Sequence,soluble on expression in E. coli
1,MGHHHHHHSHAAMAVEPTQIQLSKRWREIESKFAQFRRLNFAQIHTVREETMMVMTEDMPLEISYVPSTYLTEITHVSQALLEVEQLLNAPDLCAKDFEDLFKQEESLKNIKDSLQQSSGRIDIIHSKKTAALQSATPVERVKLQEALSQLDFQWEKVNKMYKDRQGRFDRSVEKWRRFHYDIKIFNQWLTEAEQFLRKTQIPENWEHAKYKWYLKELQDGIGQRQTVVRTLNATGEEIIQQSSKTDASILQEKLGSLNLRWQEVCKQLSDRKKRLEEQKNILSEFQRDLNEFVLWLEEADNIASIPLEPGKEQQLKEKLEQVKLLVEELPLRQGILKQLNETGGPVLVSAPIS,not soluble
2,MGHHHHHHSHDHYGCKQCSSLRSIQNLNSLVDKTSWIPSSVAEALGIVPLQYVFVMTFTLDDGTGVLEAYLMDSDKFFQIPASEVLMDDDLQKSVDMIMDMFCPPGIKIDAYPWLECFIKSYNVTNGTDNQICYQIFDTTVAEDVI,not soluble
3,MGHHHHHHSHEKMNGSHRDQGSSALSGVGGIRLPNGKLKCDICGIICIGPNVLMVHKRSHTGERPFQCNQCGASFTQKGNLLRHIKLHSGEKPFKCHLCNYACRRRDALTGHLRTHSVGKPHKCGYCGRSYKQRSSLEEHKERCHNYLESMGLPGTLYPVIKEETNHSEMAEDLCKIGSERSLVLDRLASNVAKRKSSMP,soluble
4,MGHHHHHHSHELLVVGSRPELGRWEPRGAVRLRPAGTAAGDGALALQEPGLWLGEVELAAEEAAQDGAEPGRVDTFWYKFLKREPGGELSWEGNGPHHDRCCTYNENNLVDGVYCLPIGHWIEATGHTNEMKHTTDFYFNIAGHQAMHYSRILPNIWLGSCPRQVEHVTIKLKHELGITAVMNFQTEWDIVQNSSGCNRYPEPMTPDTMIKLYREEGLAYIWMPTPDMSTEGRVQMLPQAVCLLHALLEKGHIVYVHCNAGVGRSTAAVCGWLQYVMGWNLRKVQYFLMAKRPAVYI,not soluble
5,MGHHHHHHSHENKKAKPVPWVEKYRPKCVDEVAFQEEVVAVLKKSLEGADLPNLLFYGPPGTGKTSTILAAARELFGPELFRLRVLELNASDERGIQVVREKVKNFAQLTVSGSRSDGKPCPPFKIVILDEADSMTSAAQAALRRTMEKESKTTRFCLICNYVSRIIEPLTSRCSKFRFKPLSDKIQQQRLLDIAKKENVKISDEGIAYLVKVSEGDLRKAITFLQSATRLTGGKEITEKVITDIAGVIPAEKIDGVFAACQSGSFDKLEAVVKDLIDEGHAATQLVNQLHDVVVENNLSDKQKSIITEKLAEVDKCLADGADEHLQLISLCATVMQQLSQNC,soluble
6,MGHHHHHHSHINTPEQTVPYGLSNYRGSFRGKRSAGPLPGNLQLSHRPHLRCACVGRYDKACLHFCTQTLDVSSNSRTAEKTDKEEEGKVRGANRGLCQRRLKSRTNKASRL,not soluble
7,MGHHHHHHSHKKLGLKVGIEIHQQLDTKHKLFCLCPTLTREVEESNFEFFRYLRLKRSEIGEEDRAAKEEVERSRRFIYKYYDTTCLVEADEEPPREVNREALLIAIQVAKMLNMEVVDEVHVMRKIVIDGSNTTGFQRTALVAFGGFLEVDGKRVGVATLCLEEEACRKVEDGEGYAVYSLDRLGIPLVEIGTEPDIDSPEMAKKVAARLGMILRSTGKVKRGLGTIRQDVNISIRDGARVEIKGVQELDILDKIVEYEVLRQVNLLKIR,soluble
8,MGHHHHHHSHKWELCPVTIISWLNLFLQVDALKDAPKVLLPQYSQETFIQIAQLLDLCILAIDSLEFQYRILTAAALCHFTSIEVVKKASGLEWDSISECVDWMVPFVNVVKSTSPVKLKTFKKIPMEDRHNIQTHTNYLAMLEEVNYINTFRKGGQLSPVCNGGIMT,not soluble
9,MGHHHHHHSHMAALKEDRSYGLSCGRVSDGSKVSVFHVKLTDSALRAFESYRARQDSVSLRPSIRFQGSQGHISIPQPDCPAEARTFSFYLSNIGRDNPQGSFDCIQQYVSSHGEVHLDCLGSIQDKITVCATDDSYQKARQSMAQAEEETRSRSAIVIKAGGRYLGKKVQFRK,not soluble
10,MGHHHHHHSHMACYIYQLPSWVLDDLCRNMDALSEWDWMEFASYVITDLTQLRKIKSMERVQGVSITRELLWWWGMRQATVQQLVDLLCRLELYRAAQIILNWKPAPEI,not soluble
11,MGHHHHHHSHMADVEDGEETCALASHSGSSGSKSGGDKMFSLKKWNAVAMWSWDVECDTCAICRVQVMDACLRCQAENKQEDCVVVWGECNHSFHNCCMSLWVKQNNRCPLCQQDWVVQRIGK,not soluble
12,MGHHHHHHSHMAYEISKKVLHIVGKTNATYKLIEEGDKILLGLSGGKDSIMLACILARMQKHAPFKFDFKAVTVHYGLGEDLKWLSDLCQEQGIEHEIIYTQIAATINEKRREKSSFCSFCSRLRRGTLYSKALEEGYNKVAIAHHLDDAVESFFMNFTYNGSLRSMPPIYRAENGLLVIRPLIKVREASSIHFVTSQNIPVAPDCNCPAKQPTSDKPPIARLATKNFLKEMQNLHPRFFDSLENAFNNVQANSFSDAKYLDA,not soluble
13,MGHHHHHHSHMAYNKEEKIKSLNRMQYEVTQNNGTEPPFQNEYWDHKEEGLYVDIVSGKPLFTSKDKFDSQCGWPSFTKPIEEEVEEKLDTSHGMIRTEVRSRTADSHLGHVFNDGPGPNGLRYCINSAALRFVPKHKLKEEGYESYLHLFNK,soluble
14,MGHHHHHHSHMCVARVYHGWLFEGLGRDKAEELLQLPDTKVGSFMIRESETKKGFYSLSVRHRQVKHYRIFRLPNNWYYISPRLTFQCLEDLVNHYSEVADGLCCVLTTPCLTQSTAAPAVRASSSPVTLRQKTVDWRRVSRLQEDPEGTENPLGVDESLFSYGLRESIASYLSLTSEDNTSFDRKKKSISLMYGGSKRKSSFFSSPPYFED,soluble
15,MGHHHHHHSHMDELVHDLASALEQTSEQNKLGELWEEMALSPRQQRRQLRKRRGRKRRSDFTHLAEHTCCYSEASESSLDEATKDCREVAPVTNFSDSDDTMVAKRHPALNAIVKSKQHSWHESDSFTENAPCRPLRRRRKVKRVTSEVAASLQQKLKVSDWSYERGCRFKSAKKQRLSRWKENTPWTSSGHGLCESAENRTFLSKTGRKERMECETDEQKQGSDENMSEW,not soluble
16,MGHHHHHHSHMEALARLHLTVTRAYKVNTDINFEVFIHKVDGLSDDHKIETQRDIHQRANDDLADAGLEKIHLSFYLTSIYDHSIFEAFSKVVQKLIPQLPTLENLLNIFISNSGIEKAFLFDVVSKIYIATDSTPVDMQTYELCCDMIDVVIDISCIYGLKEDGAGTPYDKESTAIIKLNNTTVLYLKEVTKFLALVCFVREESFERKGLIDYNFHCFRKAIHEVFEVRMKVVKSRKVQNRLQKKKRATPNGTPRVLL,soluble
17,MGHHHHHHSHMEGTYITSEHSYQKPQSFGQDCKSLADPGSSDDDDVSSLEEEQEFHMRSKNSLQYSAKEHGMPEKNPAEGNTVFVYNDKKGTEDPGDSHLQWQLNLLTHIENVQNEVTSRMDLIEKEVDVLESWLDFTGELEPPDPLARLPQLKRHIKQLLIDMGKVQQIATLCSV,not soluble
18,MGHHHHHHSHMESVALYSFQATESDELAFNKGDTLKILNMEDDQNWYKAELRGVEGFIPKNYIRVKPHPWYSGRISRQLAEEILMKRNHLGAFLIRESESSPGEFSVSVNYGDQVQHFKVLREASGKYFLWEEKFNSLNELVDFYRTTTIAKKRQIFLRDEEPLLKSPGACFAQAQFDFSAQDPSQLSFRRGDIIEVLERPDPHWWRGRSCGRVGFFPRSYVQPVHL,not soluble
19,MGHHHHHHSHMFGGDTLYELRCSLQLAETEREGGFSPHISPFTAVNDLGHLLGRAGFNTLTVDTDEIQVNYPGMFELMEDLQGMGESNCAWNRKALLHRDTMLAAAAVYREMYRNEDGSVPATYQIYYMIGWKYHESQARPAERGSATVSFGELGKINNLMPPGKKSQ,not soluble
20,MGHHHHHHSHMFLVLKKKHICHRNLVNILQLNMYVCCLDKCNHCKHLYDLGFCFYFEMGAFLFTSSLKTKNCFCKEMRFFLNNKKCLADSLLNKNLPNFLIDYFKPFVTWYSFASQFRFRVITFPLFLRKMKKVILLSEGERHSFIFFFFFFFFL,not soluble
21,MGHHHHHHSHMGAGLSADRRRSLCAREFRKLGFSNSNPAQDLERVPPGLLALDNMLYFSRNAPSAYSRFVLENSSREDKHECPFARGSIQLTVLLCELLRVGEPCSETAQDFSPMFFGQDQSFHELFCVGIQLLNKTWKEMRATQEDFDKVMQVVREQLARTLALKPTSLELFRTKVNALTYGEVLR,soluble
22,MGHHHHHHSHMGHLDKEGLCTQGSSFSWLLRVLNDGISLGLTPCLWDMYLLEGEQMLMLITSIAFKVQRSLYEETNKETWGPATPRALKGTGRARPICESLHSSLQALTASESSRGPSLLQTPPRVPGQQALSRGDKGISVSLSLPSLPSRRGRCGRIIG,not soluble
23,MGHHHHHHSHMGLWQQISNCMPDLALCSDIKFFLRCLERWLNRNSSALQLPARSTQKEIISAFPTKVPSSSHWDWLDSGCSPQKASRSRVGCRLTREAQGVRELPPLAKGSCEGLCREERGIPAQILCFPHGLCNPQTRRFPWVPAPPGPWVSSKKLGSHLGRH,not soluble
24,MGHHHHHHSHMHGWTWSVPKFMKRMKVPDYKDKAVFGVPLIVHVQRTGQPLPQSIQQALRYLRSNCLDQVGLFRKSGVKSRIHALRQMNENFPENVNYEDQSAYDVADMVKQFFRDLPEPLFTNKLSETFLHIYQYVSKEQRLQAVQAAILLLADENREVLQTLLCFLNDVVNLVEENQMTPMNLAVCLAPSLFHLNLL,not soluble
25,MGHHHHHHSHMIGPIIDKLEKVAVRGGDKKLKPEYDIMCKVKSWVIDQKKPVRFYHDWNDKEIEVLNKHLFLTSKPMVYLVNLSEKDYIRKKNKWLIKIKEWVDKYDPGALVIPFSGALELKLQELSAEERQKYLEANMTQSALPKIIKAGFAALQLEYFFTAGPDEVRAWTIRKGTKAPQAAGKIHTDFEKGFIMAEVMKYEDFKEEGSENAVKAAGKYRQQGRNYIVEDGDIIFFKFNTPRQPKKK,not soluble
26,MGHHHHHHSHMIGSGLSDLFDLTSGVGTLSGSYVAPKAVWLPAMKAKGLEISGTFTRQVGSISMDLQLTNKALQVMTDFAIQFNRNSFGLAPAAPLQVHAPLSPNQTVEISLPLSTVGSVMKMEPLNNLQVAVKNNIDVFYFSTLYPLHILFVEDGKMDRQMFLATWKDIPNENEAQFQIRDCPLNAEAASSKLQSSNIFTVAKRNVEGQDMLYQSLKLTNGIWVLAELRIQPGNPSCTDLELSLKCRAPEVSQHVYQAYETILKN,soluble
27,MGHHHHHHSHMKDSEKHIEVEVRKFLALKQTPDFHTVIGDTVTGLLERCKAEPSFYPRNCLMQLIQTHVLSYSLCPDLMEIALKKKDVQLLQLCLQQFPDIPESVTCACLKIFLSIGDDSLQETDVNMESVFDYSINSVHDEKMEEQTEILQNGFNPEEDKCNNCDQELNKKPQDETKESTSCPVVQKRAALLNAILHSAYSETFLLPHLKDIPAQHITLFLKYLYFLYLKCSENATMTLPGIHPPTLNQIMDWICLLLDANFTVVVMMPEAKRLLINLYKLVKSQISVYSELNKIEVSFRELQKLNQEKNNRGLYSIEVLELF,not soluble
